Ends that are not written are not given here.
Columns and labels:
[1] = target: T1, IRAK2 (endogenous, human) (human, UniProt O43187 1-625); assay: endogenous co-precipitation with anti-SLAMF1 mAb (E-11) on magnetic beads from primary human macrophages, Western blot
T1 sequence (looked up): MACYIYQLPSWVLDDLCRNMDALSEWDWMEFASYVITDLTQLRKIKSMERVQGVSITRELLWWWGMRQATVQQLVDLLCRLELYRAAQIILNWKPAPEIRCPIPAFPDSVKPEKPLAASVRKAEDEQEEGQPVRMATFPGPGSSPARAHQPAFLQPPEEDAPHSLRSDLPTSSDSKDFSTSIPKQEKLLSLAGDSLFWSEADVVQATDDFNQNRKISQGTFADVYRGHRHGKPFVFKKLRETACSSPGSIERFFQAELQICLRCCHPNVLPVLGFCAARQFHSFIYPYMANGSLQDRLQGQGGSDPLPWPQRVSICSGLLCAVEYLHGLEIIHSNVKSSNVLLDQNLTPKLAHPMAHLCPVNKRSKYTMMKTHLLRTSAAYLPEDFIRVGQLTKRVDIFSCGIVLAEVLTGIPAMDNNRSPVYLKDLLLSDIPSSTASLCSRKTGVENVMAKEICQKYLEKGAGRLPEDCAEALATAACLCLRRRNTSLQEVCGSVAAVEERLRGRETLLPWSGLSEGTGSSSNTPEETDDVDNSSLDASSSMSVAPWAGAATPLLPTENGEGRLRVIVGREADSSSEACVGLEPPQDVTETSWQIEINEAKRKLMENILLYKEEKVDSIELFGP
Protocol: The SLAMF1 and TRAM interaction was used as a positive control. Primary human macrophages were pre-treated with 15 μM peptides for 30 min, stimulated with LPS for another 15′, 30′ or 1 h, lysed and used for co-precipitation with anti-SLAMF1 mouse mAbs (E-11) covalently bound to magnetic beads, followed by Western blot analysis. Proteins in lysates were analysed as input control.
Indeed, a potential P7-Pen interaction motif is located within the protein kinase domain of IRAK4. Alignment of IRAKs with the TRAM-derived sequence that is targeted by the peptide identified sequences in IRAK1 and IRAK4 that are highly similar to the P7-interacting motif in TRAM/TICAM2 (not shown). […] IRAK4 also co-precipitated with GST-SLAMF1ct in GST pull down assays from lysates of primary human macrophages (data not shown).

[2] = target: T2, human TRAM (endogenous in primary human macrophages, or overexpressed in HEK 293T cells) (human, UniProt Q86XR7 2-235, limits assumed); assay: C-terminally biotinylated peptide on Neutravidin agarose, lysates of HEK 293T cells overexpressing TRAM
T2 construct: also called TICAM2
Protocol: (§1) Immunoprecipitations with the biotinylated peptides Penetratin-biotin and Pep7-Penetratin-biotin (synthesised by custom order by GenScript) were performed by coating NeutrAvidin® Agarose Resin (Thermo Scientific) with peptide by incubating 40 μl 50% agarose slurry with 10 μl 2 mM peptides in 300 μl lysis buffer (for one precipitation reaction) (300 mM NaCl, 50 mM TrisHCl (pH 8.0), 1 mM EDTA, 1% Triton X100). Beads were washed 3 times with lysis buffer to remove unbound peptides before applying cellular extracts. Cell lysis was performed in the same lysis buffer, both for HEK293T cells and primary human macrophages. Precipitations were carried out by rotation at 4° C. for 30′-1 h, followed by four washes with lysis buffer. Agarose resin with precipitated protein complexes was heated in loading buffer 1×NuPAGE® LDS Sample Buffer (Thermo Fisher Scientific) containing 20 mM DTT and analysed by Western blotting.
(§2) Murine disease models are the most accessible and widely used pre-clinical model for testing new drugs. […] To test the potential interaction of the P7 peptide with murine TRAM vs. human TRAM protein, we performed precipitations of C-terminally biotinylated Pen or P7-Pen peptides.

[3] = target: murine TRAM protein (overexpressed in HEK 293T cells) (murine, UniProt Q8BJQ4 2-232, limits assumed); assay: as above
Protocol: as §1, §2

[4] = target: T3, TRAF6 (endogenous, human) (human, UniProt Q9Y4K3 1-522); assay: biotinylated peptide on NeutrAvidin beads, lysates of LPS-stimulated primary human macrophages, Western blot; within a complex
T3 sequence (looked up): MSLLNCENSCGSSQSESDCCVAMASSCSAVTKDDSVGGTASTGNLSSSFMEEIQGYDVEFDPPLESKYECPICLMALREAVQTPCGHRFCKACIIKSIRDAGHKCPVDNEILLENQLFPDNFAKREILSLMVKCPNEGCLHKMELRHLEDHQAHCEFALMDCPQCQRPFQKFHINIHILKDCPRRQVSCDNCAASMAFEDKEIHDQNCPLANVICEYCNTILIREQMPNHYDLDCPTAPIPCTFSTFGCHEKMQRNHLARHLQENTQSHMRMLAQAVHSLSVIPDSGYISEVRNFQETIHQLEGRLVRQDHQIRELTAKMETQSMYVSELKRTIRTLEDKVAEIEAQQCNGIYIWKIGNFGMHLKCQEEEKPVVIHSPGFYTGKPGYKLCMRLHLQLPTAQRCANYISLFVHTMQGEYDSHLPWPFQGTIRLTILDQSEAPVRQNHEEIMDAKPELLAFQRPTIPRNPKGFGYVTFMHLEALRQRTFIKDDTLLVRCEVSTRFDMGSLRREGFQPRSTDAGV
Protocol: (§3) Precipitations were performed using biotinylated peptides on lysates of primary human macrophages stimulated with LPS (100 ng/ml) for 15, 30 or 60 min and unstimulated cells (A), and stimulated with LPS for 30 or 60 min, or CL075/TLR8 ligand for 15 or 30 min (B).
as §1, with “blotting. […]” for “blotting.”

[5] = target: T4, MyD88 (endogenous, human) (human, UniProt Q99836 1-296); assay: biotinylated peptide on NeutrAvidin beads, lysates of primary human macrophages, Western blot; may be indirect, within a complex
T4 construct: also called Myeloid Differentiation primary response protein 88
Protocol: as §3, §1
(§4) To look for interactions between P7 and proteins in the Myddosome complex, biotinylated P7 peptides were pre-incubated with lysates of primary human macrophages (unstimulated and stimulated by LPS or CL075) and NeutrAvidin beads, followed by Western blot analysis of precipitates (FIG. 26). […] Upon stimulation with LPS, the complex of P7-interacting proteins attracted TRAF6 and TAK1 (FIG. 26A).

[6] = target: T5, IRAK1 (endogenous, human) (human, UniProt P51617 1-712, limits assumed); assay: as above
T5 construct: SLAMF1 co-precipitated the ubiquitinated/phosphorylated form after LPS stimulation; also called interleukin 1 receptor-associated kinase 1; modified IRAK1
Protocol: as §3, §1, §4

[7] = target: T6, IRAK4 (endogenous, human) (human, UniProt Q9NWZ3 1-460); assay: as above
T6 construct: also called interleukin 1 receptor-associated kinase 4
T6 sequence (looked up): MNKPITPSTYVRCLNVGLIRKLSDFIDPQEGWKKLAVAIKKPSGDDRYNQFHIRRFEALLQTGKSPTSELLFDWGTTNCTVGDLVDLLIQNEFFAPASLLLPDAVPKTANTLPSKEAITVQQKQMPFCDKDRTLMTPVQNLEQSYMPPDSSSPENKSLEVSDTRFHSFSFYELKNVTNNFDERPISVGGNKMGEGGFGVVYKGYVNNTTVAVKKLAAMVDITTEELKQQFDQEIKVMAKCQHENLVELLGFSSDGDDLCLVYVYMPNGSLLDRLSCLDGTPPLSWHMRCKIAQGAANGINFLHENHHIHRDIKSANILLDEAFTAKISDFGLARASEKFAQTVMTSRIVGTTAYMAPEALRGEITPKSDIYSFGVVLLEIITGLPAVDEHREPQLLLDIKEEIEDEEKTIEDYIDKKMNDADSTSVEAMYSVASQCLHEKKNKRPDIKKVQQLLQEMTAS
Protocol: as §3, §1, §4

Mal (endogenous, human) = target: T7, Mal (endogenous, human) (human, UniProt P58753 1-221, limits assumed); assay: as above
T7 construct: also called Mal/TIRAP; MyD88-adaptor-like protein
Protocol: as §3, §1, §4

Measured: binding result

T4 sequence (Q99836 whole entry): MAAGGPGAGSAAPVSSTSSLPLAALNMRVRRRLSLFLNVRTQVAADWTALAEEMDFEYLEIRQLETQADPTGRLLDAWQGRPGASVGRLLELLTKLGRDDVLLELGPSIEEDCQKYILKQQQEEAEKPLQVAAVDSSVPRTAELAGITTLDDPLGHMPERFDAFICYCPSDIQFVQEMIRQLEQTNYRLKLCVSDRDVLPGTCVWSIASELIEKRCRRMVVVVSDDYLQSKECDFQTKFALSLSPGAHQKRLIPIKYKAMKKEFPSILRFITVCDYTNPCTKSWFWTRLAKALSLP
T5 sequence (P51617 whole entry): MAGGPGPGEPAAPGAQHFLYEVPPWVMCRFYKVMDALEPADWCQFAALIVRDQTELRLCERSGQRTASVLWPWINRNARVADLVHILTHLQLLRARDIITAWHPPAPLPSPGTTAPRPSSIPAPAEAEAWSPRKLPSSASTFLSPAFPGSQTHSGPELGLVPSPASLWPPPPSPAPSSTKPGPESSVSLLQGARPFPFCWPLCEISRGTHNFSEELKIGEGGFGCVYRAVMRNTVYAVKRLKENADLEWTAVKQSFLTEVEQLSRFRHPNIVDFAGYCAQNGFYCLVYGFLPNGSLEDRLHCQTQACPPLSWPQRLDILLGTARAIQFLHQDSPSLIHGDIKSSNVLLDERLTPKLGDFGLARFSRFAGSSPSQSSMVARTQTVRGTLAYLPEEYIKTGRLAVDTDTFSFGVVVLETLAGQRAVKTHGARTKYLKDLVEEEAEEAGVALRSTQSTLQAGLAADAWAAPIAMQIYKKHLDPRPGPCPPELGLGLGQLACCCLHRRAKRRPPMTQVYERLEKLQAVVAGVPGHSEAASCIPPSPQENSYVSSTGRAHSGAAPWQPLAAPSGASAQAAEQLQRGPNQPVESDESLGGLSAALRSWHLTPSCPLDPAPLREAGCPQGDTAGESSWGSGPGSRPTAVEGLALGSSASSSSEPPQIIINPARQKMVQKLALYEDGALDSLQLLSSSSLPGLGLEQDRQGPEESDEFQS
Chain of murine TRAM protein (overexpressed in HEK 293T cells) (Q8BJQ4 2-232 limits assumed): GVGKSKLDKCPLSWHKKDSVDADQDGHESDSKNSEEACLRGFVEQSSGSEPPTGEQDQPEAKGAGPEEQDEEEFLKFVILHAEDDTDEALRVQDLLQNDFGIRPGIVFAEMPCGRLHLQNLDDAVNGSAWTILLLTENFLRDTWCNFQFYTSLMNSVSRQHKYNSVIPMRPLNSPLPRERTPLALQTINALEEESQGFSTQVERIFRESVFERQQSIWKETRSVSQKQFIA
T2 sequence (Q86XR7 2-235 limits assumed): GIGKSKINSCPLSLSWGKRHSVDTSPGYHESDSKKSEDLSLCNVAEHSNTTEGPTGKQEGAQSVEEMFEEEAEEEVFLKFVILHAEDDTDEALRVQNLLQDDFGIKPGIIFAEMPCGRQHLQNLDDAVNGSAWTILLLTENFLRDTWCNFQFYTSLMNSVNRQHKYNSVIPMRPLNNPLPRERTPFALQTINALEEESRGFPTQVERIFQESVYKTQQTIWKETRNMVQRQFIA
T7 sequence (P58753 whole entry): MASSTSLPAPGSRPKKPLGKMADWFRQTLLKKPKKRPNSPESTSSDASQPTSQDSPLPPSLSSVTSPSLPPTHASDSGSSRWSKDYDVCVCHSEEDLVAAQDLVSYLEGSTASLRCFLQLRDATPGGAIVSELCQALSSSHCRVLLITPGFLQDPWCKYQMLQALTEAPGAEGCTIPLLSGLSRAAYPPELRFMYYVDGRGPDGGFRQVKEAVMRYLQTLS

B1: SLAMF1 (human, no tag stated; overexpressed in HEK293T cells or endogenous in primary human macrophages) (receptor, UniProt Q13291 21-335, looked up)
chain: ASYGTGGRMMNCPKILRQLGSKVLLPLTYERINKSMNKSIHIVVTMAKSLENSVENKIVSLDPSEAGPPRYLGDRYKFYLENLTLGIRESRKEDEGWYLMTLEKNVSVQRFCLQLRLYEQVSTPEIKVLNKTQENGTCTLILGCTVEKGDHVAYSWSEKAGTHPLNPANSSHLLSLTLGPQHADNIYICTVSNPISNNSQTFSPWPGCRTDPSETKPWAVYAGLLGGVIMILIMVVILQLRRRGKTNHYQTTVEKKSLTIYAQVQKPGPLQKKLDSFPAQDPCTTIYVAATEPVPESVQETNSITVYASVTLPES
notes: Used for SLAMF1 in the TRAM^Flag and Mal^Flag co-precipitations (no tag stated there) and for endogenous SLAMF1 precipitated with anti-SLAMF1 mAb E-11; also called SLAMF1 wt; SLAMF1 protein
no binding: [1]

B2: Pep7-Penetratin-biotin (C-terminally biotinylated P7-Pen) (peptide)
peptide: ITVYASVTLTGRQIKIWFQNRRMKWKK-biotin
modifications: not fully specified (N-terminus); also: biotin attachment not given here
notes: Custom synthesis by GenScript; immobilised on NeutrAvidin agarose; also called P7-Pen peptide; biotinylated P7 peptides
not listed: [1]
binds: all other assays above
